# From the nanobody polyreactivity screen of Harvey et al. (2022)
# Test: yeast display, Sf9 membrane polyspecificity reagent, FACS + sequencing; frameworks hold sequencing errors
# Summary of the method: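 Sorting gates, low and high (top ~1%), were placed on anti-HA fluorescence to track expression and on streptavidin fluorescence to track reagent binding. A clone's polyreactivity label is taken from the gate it came out of. The reagent was 10% biotinylated, detergent-solubilized Sf9 membrane, applied for 1 hour at 4 °C to galactose-induced yeast display cells.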
row,Sequence,polyreactivity (PSR sort gate)
1,QVQLVESGAGLVQAGGSLRLICAASGRIFDRYTMGRYRQAPGKERELVAAITQRGTSTYYADSVKGRFTLSRDTAKNTVYLQMNSLKPEDTAGYYCAATALFSGLNKRYYWGQGTQLTVSS,high polyreactivity
2,QVQLVESGAGLVQAGGSLRLICAASGSTSTTYTMGWYRQAPGKERELVAAISYSGGSTYYADSVKGRFTISRDNAKNTVYLQMNSLKPEDTAVYYCAAQSFVGWREYESWGQGTQVTVSS,high polyreactivity
3,QVQLVESGAGLVQAGGSLRLRCAASGSIFPGSALGWYRQARGKERELVAAITFGGAITYYADSVKGRFTISRDNAKNTVYLLMNSLKPEDSAVYYCAAKSPRILLDYWGQGTQVTVSS,low polyreactivity
4,QVQLVESGAGLVQAGGSLRLRCAASRRSFRNYAMGWYRPAPGKEREVVAAIRSGVRTYYADSVKGRFTISRDNAKNTVYLQMNSLKPEDTAVYYCAVATGLLYKSHGYWGQGTQVTVSS,low polyreactivity
5,QVQLVESGAGLVQAGGSLRLSCAASGFIFAGYAMGLYRQAPGKERELFAAISSRGGSTYYADSVKGRFTISRDNAKNPVDLQMNSLKPEDTAVYYCNKYYYGFTPVGYKKMDYWGQGTQVIVSS,low polyreactivity
6,QVQLVESGAGLVQAGGSLRLSCAASGFIFWRNTMGWYRQAPGKERELVAVITRGGSTYYADSVKGRFTISRDNAKNTVYLQMNSLKPVDTAVYYCNADNVVEGYDRRSARASYRYYYWGQGTQVTVSS,low polyreactivity
7,QVQLVESGAGLVQAGGSLRLSCAASGFTFQYYAMGWYRQAPGKERELVATISSTDNTYYADSVKGRFTISRDNAKNTVYLQMNSLKPEDTAVYYCAARPTYRRRQGRGYWGQGTQVTVSS,high polyreactivity
8,QVQLVESGAGLVQAGGSLRLSCAASGFTFWRYVMGTYRPAPGKERELVAGITSGGSTYYADSVKGRFTISRDNAKNTVYLQMNSLKPEDTAVYYCAARSGFRSRHKYDYWGQGTQVSVSS,high polyreactivity
9,QVQLVESGAGLVQAGGSLRLSCAASGFTFYYNAMGWYRQAPGKERELVASISSNGTSTYYADSVKGRFTISRDYAKNTVYLQMNSLKPEDTAVYYCNVDIFDPRTYDYWGQGTQVTVSS,low polyreactivity
10,QVQLVESGAGLVQAGGSLRLSCAASGIIFSGYAMGWYTQAPGKERELVAAISYSGASTYYADSVKGRFTISRDNAKNTVYLQMNSLKPEDTAVYYCAADRRYARYWNGWRYNYWGQGTQVTVSS,high polyreactivity
11,QVQLVESGAGLVQAGGSLRLSCAASGITFSYYSMGWYRQAPGKERELVAVISGSGSTTSYADSVKGRFTISRDNAKNTVYLQMNSLKPEDTAVYYCAADGGWRPEYYYWGQGTQVTVSS,low polyreactivity
12,QVQLVESGAGLVQAGGSLRLSCAASGLIFQSNAMVWYRQAPGKERELVAAISTAGSTNYGDSETGRFTISRDNAKKTVFLQMNSLKREDTAVYSCAAQVSTPYRYPRQILYDYWGQGTQVTVSS,low polyreactivity
13,QVQLVESGAGLVQAGGSLRLSCAASGLTFLQNALGWSRQAPGNERELVAAINIGTNTYADSVKGRFTISRDNAKNTVYLQMNSLKPEDTAVDYCNTDSAPYYWLSDNYDSWGQGTQVTVSS,low polyreactivity
14,QVQLVESGAGLVQAGGSLRLSCAASGLTSTNNAMGWYRQAPGKERELVAAITSGSTTNYADSVKGRFTISRDNAKNTVYLQMNSLKPEDTAVYYCAAQYGVWWRRYYYPEYDYWGQGTQVTVSS,low polyreactivity
15,QVQLVESGAGLVQAGGSLRLSCAASGNIFRFYAMGWYRQAPGKERELVAAISYNGGRTYYADSVKGRFTISRDNAKNTVYLQMNILKPEDTAVYYCNAAGRDDAYDYWGQGTQVTVAS,high polyreactivity
16,QVQLVESGAGLVQAGGSLRLSCAASGRIFHFYAMGWYRQAPGKERELVAAITSRTGNTYYADSVKGRFTISRDNAKNTVYLQMNSLKPEDTAVYYCAAKLVNALLHYRNWNHNNYWGQGTQVTVSS,low polyreactivity
17,QVQLVESGAGLVQAGGSLRLSCAASGRIFNWYVMGWYRQAPGKERELVAAINSGGITKYADSVKGRFTISRDNAKNTVYLQMNSLKPEDTAVYYCAAYYRRYDYDYWGQGTQVTVSS,high polyreactivity
18,QVQLVESGAGLVQAGGSLRLSCAASGRIFTNYVLGWSRQAPGKERELVAAISWTGGRTYYADSVKGRFTISRDYAKNTVYLQMISLKPEDTAVYYCAARARIGTVDYWGQGTQVTVSS,high polyreactivity
19,QVQLVESGAGLVQAGGSLRLSCAASGRTFGRYAMAWYRQAPGKERELVAAINNGGGTYYADSVKGLFTISRDNAKNTVYLLINSLYPEDTAVYYCAAATRKRVGSYYYWGQGTQVTVSS,high polyreactivity
20,QVQLVESGAGLVQAGGSLRLSCAASGRTFVDNTMGLYTHAPGKERELVASISSGGSTYYADSVKGRFTISRDNAKNTVYLQMNRLKPEDTAVYDCATGDTLFVFYPDYEYWGQGTQVTVSS,low polyreactivity

row,Sequence,polyreactivity (PSR sort gate)
1,QVQLVESGAGLVQAGGSLRLSCAASGRTFWWYAMGWDRQAPGKERELVADINGSGGSTYYADSVKGRFTISRDNAKNTVYLQMICLKPEDTAVYFCAADYYRYIHSVVYSIYDYWGQGTQVTVSS,low polyreactivity
2,QVQLVESGAGLVQAGGSLRLSCAASGRTIRSYAMGWYRQATGKERELVAAISSGGRTYYADSVKGRFTISRDNAKNNVYLQMNSLKPEDTAVYYCAVRYRVYIFQYGYWGQGTQVTVSS,high polyreactivity
3,QVQLVESGAGLVQAGGSLRLSCAASGSIFAWYGMGWYRQAPGQERELVAAISTAGSTNYADSVKGRFTISRDNAKNTVYLQMNSLKPEDTAVYYCAKISSWYYPERFDYWGQGTQVTVSS,low polyreactivity
4,QVQLVESGAGLVQAGGSLRLSCAASGSIFDVNAMGWYRQAPGKERELVAAISQRGTRTYYADSVKGRFTISRDNAKNTVYLQMNRLKPEDTAVYYFNRGGWRKYDSWGQGTQVTVSS,high polyreactivity
5,QVQLVESGAGLVQAGGSLRLSCAASGSIFLYNDMGWYRQAPGKERELVAAITSDGSTNYADSVKGRFTISRDNAMNTVYLQMNSLKPEDNAVYYCAADALWFYLNWYYGGTAYGYWGQCTQVTVSS,low polyreactivity
6,QVQLVESGAGLVQAGGSLRLSCAASGSIFRVYAMGWYRQAPGKERELVAAISQSADSTYYADSVKGRFTILRDNAKYTVYLQMNSLKPEDTAVYYCAAEYPYIYRFDYWGQGTQVTVSS,low polyreactivity
7,QVQLVESGAGLVQAGGSLRLSCAASGSIFYPYAMGWYRQAPGKERELVAAITYSGGSTYADSVKGRFTISRDNAKNTVYLQMNSLKPEDTAVYYCAARYIIHVGSWYDYWGQGTQVTVSS,high polyreactivity
8,QVQLVESGAGLVQAGGSLRLSCAASGSTFEVYAMGWYRQAPGKVMELVADISHIGGSTYSADSVMGRFTISRDNAKNTVYLQLNSLKPEDTAVYYCNAYTVYAYDYWGQGTQVTVSS,low polyreactivity
9,QVQLVESGAGLVQAGGSLRLSCAASGSTFWYYAMGLYRQAPGKERELVAAITRDGNTYYADSVKGRFTISRDNAMNSFYLQMNSLKREDTAVYYCAAGFYLLGKYDYWGQGTQVTVSS,high polyreactivity
10,QVQLVESGAGLVQAGGSLRLSCAASGSTFYPYAMGWYRQAPGKERELVAAISWSGGSTYYADSVKGRFTISRDNAKNTVYLQMNSLKPEDTAVYYCAAEYYYIAYTMDYWGQGTQVTVSS,high polyreactivity
11,QVQLVESGAGLVQAGGSLRLSCAASGSTLVYNDMGWYRQAPGKDREFVAAIRSNDGSTYYADSVKGRFTISRDNAKNTVYLQMNSLKPEDTAVYYCAKDSRNVYWDYGYWGQGTQVTVSS,low polyreactivity
12,QVQLVESGAGLVQAGGSLRLSCAPSGRTFDYYAMGWYRQAPGKERELVADITKDGGSTYYADSVKGRFTISRDNAKNSVYLQMISLKPEDTAVYYCAADGPPQYYDPIHYDYWGQGTQVTVSS,low polyreactivity
13,QVQLVESGAGLVQAGGSLRLSCAPSGRTFWGKVMGWYRQAPGKERELVAAITGRVGSTRYADSVKGRFTISRDNAKNTVFLQMNSLKPEDTAVYYCNADDYELYDYWGQGTQVTVSS,low polyreactivity
14,QVQLVESGAGLVQAGGSLRLSCAPSGSILVNPIGWYRQAPGKEREFVAAISSGGSTKYADSVKGRFTISRDNAKNTVYLQMNSLKPEATAVYYCNARRRGAGGYDYWGQVTQVTVSS,high polyreactivity
15,QVQLVESGAGLVQAGGSLRLSWAASGFTFAQNAMGWYTQAPGKERELVAAISRRGGSTYYADSVKGRFTISRDNAKNTVYLQMNSLKPEDTAVYYCDTAGTYTGGEGYWGQGTQVTVSS,high polyreactivity
16,QVQLVESGAGLVQAGGSLRLSWAASGRIFTGNGMGWYRQAPGKEMELVAGIRNGGGRTYYADSVKGRFTISRDNAKNTVYLKMNSLKPEDTAVYYCAVRIYVRNSPGERLDKYDYWGQGTQVTVSS,high polyreactivity
17,QVQLVESGAGLVQAGGSLRLSWAPSGITFLYYAMGLYRQAPGTEMELVATISISGGSTYYADSVKGRFTISRDNAKYTVYLQMTSLQPEESAVYYCAADDSVVTYSYDTWLVDYDYWGQATQVTVSS,low polyreactivity
18,QVQLVESGAGLVQAGGSLRLTCAASGFIFGYNARGWYRPAPGKERELVAAIRYRGVSTYYADSVKGRFTISRDNAKNTFYLQMNSLKPVETAVYYCNARTRVKTTQSYDRNYYYWGQGTQVTVSS,high polyreactivity
19,QVQLVESGAGLVQAGGSLSLSCAASGSIFGYYTMGWYRQAPGKERELVAAISRSGTSTFYADSVKGRFTISRDNAKNTVYLQMNSLKQEDTAVYYCNAVGSGYRSWYDYWGQGTKVTVSS,high polyreactivity
20,QVQLVESGAGLVQAGVSLRLSCAASGRTFPYYAMGWYRQAPGKERELVARITYSGGSTYADSVKGRFPISRDNAKNTVYLQMNSLKPEDTAVYFCAAQYYAYLLDGYHRYDYWGLGTQVTVSS,high polyreactivity
